Reference: paper PMC4675670

Substrate: O=C(O)[C@@H]1CCCN1
Experiment: enzyme kinetics, Km
Format: biochemical, Homo sapiens

B1: human EPRS (bifunctional glutamyl-prolyl-tRNA synthetase) (Homo sapiens) (protein)
chain: MATLSLTVNSGDPPLGALLAVEHVKDDVSISVEEGKENILHVSENVIFTDVNSILRYLARVATTAGLYGSNLMEHTEIDHWLEFSATKLSSCDSFTSTINELNHCLSLRTYLVGNSLSLADLCVWATLKGNAAWQEQLKQKKAPVHVKRWFGFLEAQQAFQSVGTKWDVSTTKARVAPEKKQDVGKFVELPGAEMGKVTVRFPPEASGYLHIGHAKAALLNQHYQVNFKGKLIMRFDDTNPEKEKEDFEKVILEDVAMLHIKPDQFTYTSDHFETIMKYAEKLIQEGKAYVDDTPAEQMKAEREQRIDSKHRKNPIEKNLQMWEEMKKGSQFGQSCCLRAKIDMSSNNGCMRDPTLYRCKIQPHPRTGNKYNVYPTYDFACPIVDSIEGVTHALRTTEYHDRDEQFYWIIEALGIRKPYIWEYSRLNLNNTVLSKRKLTWFVNEGLVDGWDDPRFPTVRGVLRRGMTVEGLKQFIAAQGSSRSVVNMEWDKIWAFNKKVIDPVAPRYVALLKKEVIPVNVPEAQEEMKEVAKHPKNPEVGLKPVWYSPKVFIEGADAETFSEGEMVTFINWGNLNITKIHKNADGKIISLDAKLNLENKDYKKTTKVTWLAETTHALPIPVICVTYEHLITKPVLGKDEDFKQYVNKNSKHEELMLGDPCLKDLKKGDIIQLQRRGFFICDQPYEPVSPYSCKEAPCVLIYIPDGHTKEMPTSGSKEKTKVEATKNETSAPFKERPTPSLNNNCTTSEDSLVLYNRVAVQGDVVRELKAKKAPKEDVDAAVKQLLSLKAEYKEKTGQEYKPGNPPAEIGQNISSNSSASILESKSLYDEVAAQGEVVRKLKAEKSPKAKINEAVECLLSLKAQYKEKTGKEYIPGQPPLSQSSDSSPTRNSEPAGLETPEAKVLFDKVASQGEVVRKLKTEKAPKDQVDIAVQELLQLKAQYKSLIGVEYKPVSATGAEDKDKKKKEKENKSEKQNKPQKQNDGQRKDPSKNQGGGLSSSGAGEGQGPKKQTRLGLEAKKEENLADWYSQVITKSEMIEYHDISGCYILRPWAYAIWEAIKDFFDAEIKKLGVENCYFPMFVSQSALEKEKTHVADFAPEVAWVTRSGKTELAEPIAIRPTSETVMYPAYAKWVQSHRDLPIKLNQWCNVVRWEFKHPQPFLRTREFLWQEGHSAFATMEEAAEEVLQILDLYAQVYEELLAIPVVKGRKTEKEKFAGGDYTTTIEAFISASGRAIQGGTSHHLGQNFSKMFEIVFEDPKIPGEKQFAYQNSWGLTTRTIGVMTMVHGDNMGLVLPPRVACVQVVIIPCGITNALSEEDKEALIAKCNDYRRRLLSVNIRVRADLRDNYSPGWKFNHWELKGVPIRLEVGPRDMKSCQFVAVRRDTGEKLTVAENEAETKLQAILEDIQVTLFTRASEDLKTHMVVANTMEDFQKILDSGKIVQIPFCGEIDCEDWIKKTTARDQDLEPGAPSMGAKSLCIPFKPLCELQPGAKCVCGKNPAKYYTLFGRSY
  Km: 135.4 µM
